± gives the standard deviation of the averaged measurements.
Tests used:
[1] = system: hTERT-HMEC; test: percentage of EdU-negative (G0-arrested) nuclei per well, 72 h; higher = more G0 arrest; conditions: reference: sequence is the full UniProt precursor, the tested protein was the secreted form or ectodomain
[2] = system: MCF7; test: as above; conditions: reference: sequence is the full UniProt precursor, the tested protein was the secreted form or ectodomain
[3] = protein concentration 0.01975 µM
[4] = protein concentration 0.1975 µM
[5] = protein concentration 0.0225 µM
[6] = protein concentration 0.00975 µM
[7] = protein concentration 0.0975 µM
[8] = protein concentration 0.02085 µM
[9] = protein concentration 0.2085 µM
[10] = protein concentration 0.0217725 µM
[11] = protein concentration 0.217725 µM
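Also: secreted proteins added to cultured cells, EdU pulse at the end, nuclei found by Hoechst imaging, EdU status from nuclear versus surrounding ring intensity ratio, PBS as neutral control.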

Sequence | percentage of EdU-negative [1, 5] [%] | percentage of EdU-negative ([1]; protein concentration 0.225 µM) [%] | percentage of EdU-negative [2, 5] [%] | percentage of EdU-negative ([2]; protein concentration 0.225 µM) [%] | also measured
MAAAASPAFLLCLPLLHLLSGWSRAGWVDTHCLCYDFIITPKSRPEPQWCEVQGLVDERPFLHYDCVNHKAKAFASLGKKVNVTKTWEEQTETLRDVVDFLKGQLLDIQVENLIPIEPLTLQARMSCEHEAHGHGRGSWQFLFNGQKFLLFDSNNRKWTALHPGAKKMTEKWEKNRDVTMFFQKISLGDCKMWLEEFLMYWEQMLDPTKPPSLAPGTTQPKAMATTLSPWSLLIIFLCFILAGR [Q9BZM6] |  |  |  |  | percentage of EdU-negative [1, 3]: 4.75 ± 0.89%; percentage of EdU-negative [1, 4]: 6.21 ± 1.1%; percentage of EdU-negative [2, 3]: 24.2 ± 1.6%; percentage of EdU-negative [2, 4]: 25.4 ± 1.1%
MSPHLTALLGLVLCLAQTIHTQEGALPRPSISAEPGTVISPGSHVTFMCRGPVGVQTFRLEREDRAKYKDSYNVFRLGPSESEARFHIDSVSEGNAGLYRCLYYKPPGWSEHSDFLELLVKESSGGPDSPDTEPGSSAGTVPGTEASGFDAP [Q6ISS4] | 4.81 ± 0.34 | 6.43 ± 0.35 | 24.7 ± 0.63 | 27.9 ± 3.5 | 
MASSWKLMLFLSVTMCLSEYSKSLPGLSTSYAALLRIKKSSSSSLFGSKTRPRYSSPSLGTLSASSPSWLGAAQNYYSPINLYHSSDAFKQDESVDYGPVFVQEPDDIIFPTDSDEKKVALNCEVRGNPVPSYRWLRNGTEIDLESDYRYSLIDGTFIISNPSEAKDSGHYQCLATNTVGSILSREATLQFAYLGNFSGRTRSAVSVREGQGVVLMCSPPPHSPEIIYSWVFNEFPSFVAEDSRRFISQETGNLYISKVQTSDVGSYICLVKNTVTNARVLSPPTPLTLRNDGVMGEYEPKIEVHFPFTVTAAKGTTVKMECFALGNPVPTITWMKVNGYIPSKARLRKSQAVLEIPNVQLDDAGIYECRAENSRGKNSFRGQLQVYTYPHWVEKLNDTQLDSGSPLRWECKATGKPRPTYRWLKNGVPLSPQSRVEMVNGVLMIHNVNQSDAGMYQCLAENKYGAIYASAELKILASAPTFALNQLKKTIIVTKDQEVVIECKPQGSPKPTISWKKGDRAVRENKRIAILPDGSLRILNASKSDEGKYVCRGENVFGSAEIIASLSVKEPTRIELTPKRTELTVGESIVLNCKAIHDASLDVTFYWTLKGQPIDFEEEGGHFESIRAQASSADLMIRNILLMHAGRYGCRVQTTADSVSDEAELLVRGPPGPPGIVIVEEITESTATLSWSPAADNHSPISSYNLQARSPFSLGWQTVKTVPEIITGDMESAMAVDLNPWVEYEFRVVATNPIGTGDPSTPSRMIRTNEAVPKTAPTNVSGRSGRRHELVIAWEPVSEEFQNGEGFGYIVAFRPNGTRGWKEKMVTSSEASKFIYRDESVPPLTPFEVKVGVYNNKGDGPFSQIVVICSAEGEPSAAPTDVKATSVSVSEILVAWKHIKESLGRPQGFEVGYWKDMEQEDTAETVKTRGNESFVILTGLEGNTLYHFTVRAYNGAGYGPPSSEVSATTKKSPPSQAPSNLRWEQQGSQVSLGWEPVIPLANESEVVGYKVFYRQEGHSNSQVIETQKLQAVVPLPDAGVYIIEVRAYSEGGDGTASSQIRVPSYSGGKITSAQSTLHSLSTSSSSVTLLLALMIPSTSW |  |  |  |  | percentage of EdU-negative [1, 6]: 4.88 ± 0.2%; percentage of EdU-negative [1, 7]: 10.4 ± 0.39%; percentage of EdU-negative [2, 6]: 26.6 ± 0.15%; percentage of EdU-negative [2, 7]: 27.7 ± 2.5%
MNNLLCCALVFLDISIKWTTQETFPPKYLHYDEETSHQLLCDKCPPGTYLKQHCTAKWKTVCAPCPDHYYTDSWHTSDECLYCSPVCKELQYVKQECNRTHNRVCECKEGRYLEIEFCLKHRSCPPGFGVVQAGTPERNTVCKRCPDGFFSNETSSKAPCRKHTNCSVFGLLLTQKGNATHDNICSGNSESTQKCGIDVTLCEEAFFRFAVPTKFTPNWLSVLVDNLPGTKVNAESVERIKRQHSSQEQTFQLLKLWKHQNKDQDIVKKIIQDIDLCENSVQRHIGHANLTFEQLRSLMESLPGKKVGAEDIEKTIKACKPSDQILKLLSLWRIKNGDQDTLKGLMHALKHSKTYHFPKTVTQSLKKTIRFLHSFTMYKLYQKLFLEMIGNQVQSVKISCL |  |  |  |  | percentage of EdU-negative ([1]; protein concentration 0.034 µM): 4.98 ± 0.78%; percentage of EdU-negative ([1]; protein concentration 0.34 µM): 8.17 ± 0.14%; percentage of EdU-negative ([2]; protein concentration 0.034 µM): 22.2 ± 1.3%; percentage of EdU-negative ([2]; protein concentration 0.34 µM): 29.5 ± 1%
MARGGRGRRLGLALGLLLALVLAPRVLRAKPTVRKERVVRPDSELGERPPEDNQSFQYDHEAFLGKEDSKTFDQLTPDESKERLGKIVDRIDNDGDGFVTTEELKTWIKRVQKRYIFDNVAKVWKDYDRDKDDKISWEEYKQATYGYYLGNPAEFHDSSDHHTFKKMLPRDERRFKAADLNGDLTATREEFTAFLHPEEFEHMKEIVVLETLEDIDKNGDGFVDQDEYIADMFSHEENGPEPDWVLSEREQFNEFRDLNKDGKLDKDEIRHWILPQDYDHAQAEARHLVYESDKNKDEKLTKEEILENWNMFVGSQATNYGEDLTKNHDEL | 4.56 ± 0.49 | 6.14 ± 0.11 | 22.7 ± 0.8 | 25.5 ± 0.44 | 
MDLVLKRCLLHLAVIGALLAVGATKVPRNQDWLGVSRQLRTKAWNRQLYPEWTEAQRLDCWRGGQVSLKVSNDGPTLIGANASFSIALNFPGSQKVLPDGQVIWVNNTIINGSQVWGGQPVYPQETDDACIFPDGGPCPSGSWSQKRSFVYVWKTWGQYWQVLGGPVSGLSIGTGRAMLGTHTMEVTVYHRRGSRSYVPLAHSSSAFTITDQVPFSVSVSQLRALDGGNKHFLRNQPLTFALQLHDPSGYLAEADLSYTWDFGDSSGTLISRALVVTHTYLEPGPVTAQVVLQAAIPLTSCGSSPVPGTTDGHRPTAEAPNTTAGQVPTTEVVGTTPGQAPTAEPSGTTSVQVPTTEVISTAPVQMPTAESTGMTPEKVPVSEVMGTTLAEMSTPEATGMTPAEVSIVVLSGTTAAQVTTTEWVETTARELPIPEPEGPDASSIMSTESITGSLGPLLDGTATLRLVKRQVPLDCVLYRYGSFSVTLDIVQGIESAEILQAVPSGEGDAFELTVSCQGGLPKEACMEISSPGCQPPAQRLCQPVLPSPACQLVLHQILKGGSGTYCLNVSLADTNSLAVVSTQLIMPGQEAGLGQVPLIVGILLVLMAVVLASLIYRRRLMKQDFSVPQLPHSSSHWLRLPRIFCSCPIGENSPLLSGQQV |  |  |  |  | percentage of EdU-negative [1, 8]: 4.37 ± 0.18%; percentage of EdU-negative [1, 9]: 5.18 ± 0.52%; percentage of EdU-negative [2, 8]: 25.3 ± 1.8%; percentage of EdU-negative [2, 9]: 25.4 ± 2.4%
MTLLLLPLLLASLLASCSCNKANKHKPWIEAEYQGIVMENDNTVLLNPPLFALDKDAPLRYAGEICGFRLHGSGVPFEAVILDKATGEGLIRAKEPVDCEAQKEHTFTIQAYDCGEGPDGANTKKSHKATVHVRVNDVNEFAPVFVERLYRAAVTEGKLYDRILRVEAIDGDCSPQYSQICYYEILTPNTPFLIDNDGNIENTEKLQYSGERLYKFTVTAYDCGKKRAADDAEVEIQVKPTCKPSWQGWNKRIEYAPGAGSLALFPGIRLETCDEPLWNIQATIELQTSHVAKGCDRDNYSERALRKLCGAATGEVDLLPMPGPNANWTAGLSVHYSQDSSLIYWFNGTQAVQVPLGGPSGLGSGPQDSLSDHFTLSFWMKHGVTPNKGKKEEETIVCNTVQNEDGFSHYSLTVHGCRIAFLYWPLLESARPVKFLWKLEQVCDDEWHHYALNLEFPTVTLYTDGISFDPALIHDNGLIHPPRREPALMIGACWTEEKNKEKEKGDNSTDTTQGDPLSIHHYFHGYLAGFSVRSGRLESREVIECLYACREGLDYRDFESLGKGMKVHVNPSQSLLTLEGDDVETFNHALQHVAYMNTLRFATPGVRPLRLTTAVKCFSEESCVSIPEVEGYVVVLQPDAPQILLSGTAHFARPAVDFEGTNGVPLFPDLQITCSISHQVEAKKDESWQGTVTDTRMSDEIVHNLDGCEISLVGDDLDPERESLLLDTTSLQQRGLELTNTSAYLTIAGVESITVYEEILRQARYRLRHGAALYTRKFRLSCSEMNGRYSSNEFIVEVNVLHSMNRVAHPSHVLSSQQFLHRGHQPPPEMAGHSLASSHRNSMIPSAATLIIVVCVGFLVLMVVLGLVRIHSLHRRVSGAGGPPGASSDPKDPDLFWDDSALTIIVNPMESYQNRQSCVTGAVGGQQEDEDSSDSEVADSPSSDERRIIETPPHRY [Q9BQT9] | 4.44 ± 0.21 | 5.534 ± 0.019 | 25.2 ± 1.4 | 26.1 ± 0.34 | 
MPMFIVNTNVPRASVPDGFLSELTQQLAQATGKPPQYIAVHVVPDQLMAFGGSSEPCALCSLHSIGKIGGAQNRSYSKLLCGLLAERLRISPDRVYINYYDMNAANVGWNNSTFA | 4.84 ± 1.4 | 6.38 ± 1.7 | 24.4 ± 1.2 | 26.3 ± 2 | 
MENPSPAAALGKALCALLLATLGAAGQPLGGESICSARALAKYSITFTGKWSQTAFPKQYPLFRPPAQWSSLLGAAHSSDYSMWRKNQYVSNGLRDFAERGEAWALMKEIEAAGEALQSVHAVFSAPAVPSGTGQTSAELEVQRRHSLVSFVVRIVPSPDWFVGVDSLDLCDGDRWREQAALDLYPYDAGTDSGFTFSSPNFATIPQDTVTEITSSSPSHPANSFYYPRLKALPPIARVTLVRLRQSPRAFIPPAPVLPSRDNEIVDSASVPETPLDCEVSLWSSWGLCGGHCGRLGTKSRTRYVRVQPANNGSPCPELEEEAECVPDNCV [Q9BUD6] |  |  |  |  | percentage of EdU-negative [1, 10]: 4.15 ± 0.79%; percentage of EdU-negative [1, 11]: 7.892 ± 0.078%; percentage of EdU-negative [2, 10]: 23.8 ± 0.42%; percentage of EdU-negative [2, 11]: 26.9 ± 1.5%
MAVAAAAAAAGPAGAGGGRAQRSGLLEVLVRDRWHKVLVNLSEDALVLSSEEGAAAYNGIGTATNGSFCRGAGAGHPGAGGAQPPDSPAGVRTAFTDLPEQVPESISNQKRGVKVLKQELGGLGISIKGGKENKMPILISKIFKGLAADQTQALYVGDAILSVNGADLRDATHDEAVQALKRAGKEVLLEVKYMREATPYVKKGSPVSEIGWETPPPESPRLGGSTSDPPSSQSFSFHRDRKSIPLKMCYVTRSMALADPENRQLEIHSPDAKHTVILRSKDSATAQAWFSAIHSNVNDLLTRVIAEVREQLGKTGIAGSREIRHLGWLAEKVPGESKKQWKPALVVLTEKDLLIYDSMPRRKEAWFSPVHTYPLLATRLVHSGPGKGSPQAGVDLSFATRTGTRQGIETHLFRAETSRDLSHWTRSIVQGCHNSAELIAEISTACTYKNQECRLTIHYENGFSITTEPQEGAFPKTIIQSPYEKLKMSSDDGIRMLYLDFGGKDGEIQLDLHSCPKPIVFIIHSFLSAKITRLGLVA | 4.71 ± 0.2 | 6.28 ± 0.64 | 27.8 ± 2.2 | 25.6 ± 0.97 | 
MPRYGASLRQSCPRSGREQGQDGTAGAPGLLWMGLVLALALALALALALSDSRVLWAPAEAHPLSPQGHPARLHRIVPRLRDVFGWGNLTCPICKGLFTAINLGLKKEPNVARVGSVAIKLCNLLKIAPPAVCQSIVHLFEDDMVEVWRRSVLSPSEACGLLLGSTCGHWDIFSSWNISLPTVPKPPPKPPSPPAPGAPVSRILFLTDLHWDHDYLEGTDPDCADPLCCRRGSGLPPASRPGAGYWGEYSKCDLPLRTLESLLSGLGPAGPFDMVYWTGDIPAHDVWHQTRQDQLRALTTVTALVRKFLGPVPVYPAVGNHESTPVNSFPPPFIEGNHSSRWLYEAMAKAWEPWLPAEALRTLRIGGFYALSPYPGLRLISLNMNFCSRENFWLLINSTDPAGQLQWLVGELQAAEDRGDKVHIIGHIPPGHCLKSWSWNYYRIVARYENTLAAQFFGHTHVDEFEVFYDEETLSRPLAVAFLAPSATTYIGLNPGYRVYQIDGNYSGSSHVVLDHETYILNLTQANIPGAIPHWQLLYRARETYGLPNTLPTAWHNLVYRMRGDMQLFQTFWFLYHKGHPPSEPCGTPCRLATLCAQLSARADSPALCRHLMPDGSLPEAQSLWPRPLFC | 4.79 ± 0.51 | 5.82 ± 1.2 | 24.3 ± 1.8 | 24.4 ± 1.7 | 
MSNTQAERSIIGMIDMFHKYTRRDDKIEKPSLLTMMKENFPNFLSACDKKGTNYLADVFEKKDKNEDKKIDFSEFLSLLGDIATDYHKQSHGAAPCSGGSQ | 5.43 ± 0.67 | 5.53 ± 0.45 | 23.5 ± 2.3 | 26.5 ± 2.3 | 
